Assay results from patent US8071348B2, “Protein tyrosine phosphatase substrate-trapping double mutant and uses thereof” (Albert Einstein College of Medicine of Yeshiva University, priority 2002, dated 2011).
[ ]: non-standard residue; d: D form. F2Pmp = N[C@@H](Cc1ccc(C(F)(F)P(=O)(O)O)cc1)C(=O)O

What was measured:
[1] = molecular target: T1, Ac-Asp-Ala-Asp-Glu-F2Pmp-Leu-NH2 (Homo sapiens, UniProt P18031, D181A/Q262A); assay: Isothermal titration calorimetry, binding of PTP1B and mutants to F2Pmp peptide; settings: ITC, pH 7.0, ionic strength 0.15 M, 25° C.; read-out: dissociation constant, Kd
T1 construct: The catalytic domain of PTP1B (residues 1 to 321) was used for in vitro study; made in house; host or cells: E. coli (pT7-7 plasmids)
T1 sequence (P18031 1-321 D181A/Q262A): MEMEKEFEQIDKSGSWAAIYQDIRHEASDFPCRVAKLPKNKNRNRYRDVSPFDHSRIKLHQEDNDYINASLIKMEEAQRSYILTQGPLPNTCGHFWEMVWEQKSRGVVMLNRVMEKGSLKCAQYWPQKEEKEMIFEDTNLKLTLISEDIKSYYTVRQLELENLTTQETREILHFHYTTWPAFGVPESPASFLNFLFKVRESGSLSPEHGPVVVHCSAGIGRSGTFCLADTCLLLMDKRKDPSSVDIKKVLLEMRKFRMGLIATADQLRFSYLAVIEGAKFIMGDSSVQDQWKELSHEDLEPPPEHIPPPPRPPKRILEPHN

[2] = molecular target: Ac-Asp-Ala-Asp-Glu-F2Pmp-Leu-NH2; assay: as above; settings: ITC, 25° C. and pH 7.0; data from this study

B1: PTP1B/D181A/Q262A, catalytic domain (residues 1 to 321) (enzyme, human, UniProt P18031 1-321, looked up)
chain: T1 sequence (P18031 1-321 D181A/Q262A)
notes: range 1-321; Used in vitro (ITC, kinetics); also called PTP1B substrate-trapping double mutant
Kd [1]: 6.8 nM
Kd [2]: 6.8 ± 2.3 nM
